The series addresses T1, THAP1 wild type (Homo sapiens, UniProt Q9NVV9 SEQ:1-213).
T1 sequence: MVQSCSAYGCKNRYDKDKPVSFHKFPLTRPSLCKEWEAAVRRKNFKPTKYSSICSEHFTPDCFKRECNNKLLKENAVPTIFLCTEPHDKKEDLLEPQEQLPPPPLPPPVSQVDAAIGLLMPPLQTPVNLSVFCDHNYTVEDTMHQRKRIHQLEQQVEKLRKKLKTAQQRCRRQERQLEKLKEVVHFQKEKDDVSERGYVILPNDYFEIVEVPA
As to the kind of experiment: EMSA; specific band supershifted by anti-THAP1 and competed by >200x unlabeled THABS; 150 mM KCl, 20 mM Tris pH 7.5, poly(dI-dC), room temperature. To be noted: tags: N-terminal V5 (pcDNA3.1/nV5); label: 5'-32P. On the procedure: Double-stranded oligonucleotide was prepared by annealing synthetic complementary oligonucleotides (5′-[…]-3′ (SEQ ID NO: 17) and the reverse complement of this oligo 5′ […]-3′ (SEQ ID NO: 48)) in 20 mM Tris/HCl (pH 7.5), 10 mM MgCl2, 50 mM NaCl, 1 mM dithiothreitol (DTT) by heating for 5 min at 95° c, and cooling to room temperature overnight. Probes were end-labeled with [gamma-³²P]ATP using T4 polynucleotide kinase. Unincorporated nucleotides were removed by column chromatography (illustra MicroSpin™ G-25 Columns, GE Healthcare), according to the manufacturer's protocol. […] Following buffer at 150 V at room temperature, gels were dried and exposed to storage Phosphor screens that were scanned and analyzed using a Typhoon phosphorimager (GE Healthcare).
The two constructs were expressed in an in vitro transcription/translation (IVTT) system and assessed by western for equal levels of protein expression (FIG. 4A). When the radiolabeled THABS probe was incubated with the IVTT wild-type THAP1, a major shifted band was detected (FIG. 4B, lane 6, arrowhead). […]
(In general: Mobility shift assays separate free from complexed probe on a gel.)

B1: THABS probe (dsDNA)
DNA 1: AGCAAGTAAGGGCAACTACTTCAT
DNA 2: ATGAAGTAGTTGCCCTTACTTGCT
Turning to B1, the binding result is on record as “binds”.

These data come from patent publication US20110020802, “NUCLEIC ACIDS, METHODS AND KITS FOR THE DIAGNOSIS OF DYT6 PRIMARY TORSION DYSTONIA” (Mount Sinai School of Medicine of New York University, published 2011).
